The results in this text go back to paper PMC10579300.

The target in this assay is SHP2 (UniProt P35235). Put plainly: co-immunoprecipitation, Western blot. Particulars: reference: LAIR1 wild type; sites Y251,Y281. A general note: A western blot detects proteins with antibodies after separation by electrophoresis.

In the case of “LAIR1 (from UniProt Q6GTX8) LAIR1 Y251/281F”, the “binding against the reference” value is recorded as “weaker”.
